Results reported in patent US20190382493A1 (CYTOMX THERAPEUTICS, published 2019).
Where a chain is given by its changes, count along the chain named.

Legend:
[1] = target: T1, human B7-1-Fc (R&D Systems) (human, UniProt P33681 35-242); experiment: ELISA, antigen adsorbed
T1 construct: not shown: Fc part of the bought fusion protein; not described
T1 sequence (looked up): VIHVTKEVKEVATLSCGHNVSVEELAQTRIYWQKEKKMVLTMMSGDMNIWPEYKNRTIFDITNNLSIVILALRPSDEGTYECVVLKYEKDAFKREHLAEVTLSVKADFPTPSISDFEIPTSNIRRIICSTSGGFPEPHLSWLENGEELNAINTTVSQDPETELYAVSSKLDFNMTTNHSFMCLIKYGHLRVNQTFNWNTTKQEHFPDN
Method: (§1) Bound antibody was visualized with an anti-human IgG-HRP conjugate, Fab specific, (Sigma, St Louis, Mo.; Cat # A0293-1ML) and developed with the chromogenic substrate TMB.

[2] = target: T2, human CD28-Fc (R&D Systems) (human, UniProt P10747 19-152); experiment: ELISA, antigen adsorbed
T2 construct: not shown: Fc part of the bought fusion protein; not described
Method: as §1

[3] = target: T3, human B7H3 (R&D Systems) (human, UniProt Q5ZPR3-2 29-245, limits assumed); experiment: ELISA, antigen adsorbed
T3 sequence (looked up): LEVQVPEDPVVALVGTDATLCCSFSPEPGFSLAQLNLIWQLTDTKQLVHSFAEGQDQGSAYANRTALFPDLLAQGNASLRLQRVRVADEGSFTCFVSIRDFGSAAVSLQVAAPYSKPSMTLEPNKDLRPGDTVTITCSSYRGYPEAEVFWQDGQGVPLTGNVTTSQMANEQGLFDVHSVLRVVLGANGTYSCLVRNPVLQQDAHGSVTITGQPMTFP
Method: as §1

[4] = target: T4, mouse PDL1-Fc (R & D Systems) (mouse, UniProt Q9EP73 19-238); experiment: ELISA, PDL1-Fc adsorbed, anti-human IgG (Fab specific)-HRP
T4 construct: Bought reagent; not shown: Fc part of the bought fusion protein; not described
T4 sequence (Q9EP73 19-238 limits assumed): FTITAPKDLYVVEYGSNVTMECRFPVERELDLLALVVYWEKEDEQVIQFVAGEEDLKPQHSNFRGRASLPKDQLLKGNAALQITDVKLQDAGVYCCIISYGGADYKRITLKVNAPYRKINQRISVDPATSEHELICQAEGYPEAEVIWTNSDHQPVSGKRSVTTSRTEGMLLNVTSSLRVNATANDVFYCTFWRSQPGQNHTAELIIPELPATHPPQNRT
Method: (§2) Bound antibody was visualized with an anti-human IgG-HRP conjugate, Fab specific, (Sigma, St Louis, Mo.; Cat # A0293-1ML) and developed with the chromogenic substrate TMB. […] Table 5 provides the SEQ ID NOs for the nucleic acid sequences and amino acids sequences of the respective variable heavy chains.
as §1

[5] = target: T5, human PDL1-Fc (R & D Systems) (human, UniProt Q9NZQ7 19-239); experiment: as above
T5 construct: Bought reagent; not shown: Fc part of the bought fusion protein; not described
T5 sequence (Q9NZQ7 19-239 limits assumed): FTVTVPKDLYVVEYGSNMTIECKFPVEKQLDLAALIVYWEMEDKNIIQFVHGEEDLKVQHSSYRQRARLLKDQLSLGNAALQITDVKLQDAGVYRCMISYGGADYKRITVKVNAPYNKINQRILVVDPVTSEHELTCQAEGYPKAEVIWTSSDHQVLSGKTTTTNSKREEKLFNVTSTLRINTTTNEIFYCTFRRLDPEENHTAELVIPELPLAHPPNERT
Method: as §2, §1

[6] = target: T4, mouse PDL1-Fc (R & D Systems); experiment: ELISA saturation binding, PDL1-Fc adsorbed
Method: as §1

[7] = target: T5, human PDL1-Fc (R & D Systems); experiment: ELISA saturation binding, PDL1-Fc adsorbed
Method: as §1

[8] = target: T5, human PDL1-Fc (R & D Systems); experiment: ELISA saturation binding (figure legend)
Method: as §1

[9] = target: T4, mouse PDL1-Fc (R & D Systems); experiment: ELISA, PDL1 adsorbed
Method: as §1

[10] = target: T6, cynomolgus monkey (cyno) PDL1-Fc (Sino biological) (cynomolgus monkey, UniProt G7PSE7 19-239); experiment: ELISA, PDL1 adsorbed
T6 construct: Bought reagent; not shown: Fc part of the bought fusion protein; not described
T6 sequence (G7PSE7 entry or part of it): as the sequence (Q9NZQ7 19-239 limits assumed) above, with A33T, A34S, S62N, R68Q, Q82R, F173L, T185A, T192I, H215L counted along it
Method: as §1

[11] = target: T5, human PDL1-Fc (R & D Systems); experiment: ELISA, PDL1 adsorbed
Method: as §1

[12] = target: rat PDL1 (rat, UniProt D4AE25 19-239); experiment: ELISA, PDL1 adsorbed
Chain of rat PDL1 (D4AE25 entry or part of it limits assumed, form in doubt): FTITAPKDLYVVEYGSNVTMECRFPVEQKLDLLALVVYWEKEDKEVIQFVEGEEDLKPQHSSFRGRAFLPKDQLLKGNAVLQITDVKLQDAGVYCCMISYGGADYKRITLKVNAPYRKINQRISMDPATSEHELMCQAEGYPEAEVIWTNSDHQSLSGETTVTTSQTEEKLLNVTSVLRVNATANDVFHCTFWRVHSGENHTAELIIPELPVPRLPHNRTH
Method: as §1

[13] = target: T1, human B7-1-Fc (R&D Systems); experiment: Fab-phage ELISA, antigen adsorbed
From the text: (§3) Forty seven (47) individual isolates were chosen from the final pool. […] Briefly, the antigens were adsorbed to the wells of a 96-well ELISA plate, each ligand on a separate plate. Phage were applied to correlative wells on each plate and allowed to bind. Bound phage were visualized with an anti-M13-HRP conjugate and developed with the chromogenic substrate TMB. Based on the results of the ELISA and DNA sequence, 6 unique clones with matured heavy variable CDR3 domains and 10 heavy variable CDR2 domains were chosen for further study. […] Table 4 lists the heavy variable domains encoded by the clones and SEQ ID NOs for the nucleic acid sequences and amino acid sequences of their respective heavy chains.

[14] = target: T5, human PDL1-Fc (R & D Systems); experiment: Fab-phage ELISA, antigen adsorbed
From the text: as §3

[15] = target: T7, human PDL1 (R&D Systems) (human, UniProt Q9NZQ7 19-239); experiment: phage ELISA, antigen adsorbed, anti-M13-HRP
T7 construct: also called hPDL1; recombinant human PDL1 protein
T7 sequence (Q9NZQ7 19-239 limits assumed): as the sequence (Q9NZQ7 19-239 limits assumed) above
From the text: (§4) Phage were applied to the plate and allowed to bind. Bound phage were visualized with an anti-M13-HRP conjugate (GE Healthcare, Piscataway, N.Y.) and developed with the chromogenic substrate tetramethyl benzidine (TMB) (Thermo Scientific, Rockford, Ill.).

[16] = target: T8, mouse PDL1 (R&D Systems) (mouse, UniProt Q9EP73 19-238); experiment: phage ELISA, antigen adsorbed, anti-M13-HRP
T8 construct: also called mPDL1; murine PDL1
T8 sequence (Q9EP73 19-238 limits assumed): as the sequence (Q9EP73 19-238 limits assumed) above
From the text: as §4

[17] = target: T8, mouse PDL1 (R&D Systems); experiment: phage ELISA on adsorbed mouse PDL1, PD1-Fc as competitor
From the text: Bound phage were visualized with an anti-M13-HRP conjugate (GE Healthcare, Piscataway, N.Y.) and developed with the chromogenic substrate tetramethyl benzidine (TMB) (Thermo Scientific, Rockford, Ill.).

B1: anti-PDL1 antibody C5H9 (antibody, V domains shown)
VH: EVQLLESGGGLVQPGGSLRLSCAASGFTFSSYAMSWVRQAPGKGLEWVSSIWRNGIVTVYADSVKGRFTISRDNSKNTLYLQMNSLRAEDTAVYYCAKWSAAFDYWGQGTLVTVSS
VL: DIQMTQSPSSLSASVGDRVTITCRASQSISSYLNWYQQKPGKAPKLLIYYASTLQSGVPSRFSGSGSGTDFTLTISSLQPEDFATYYCQQDNGYPSTFGQGTKVEIKR
notes: Fully human IgG; also called PDL1 C5H9
**Q.** Does B1 bind [1]?
**A.** no binding

**Q.** Does B1 bind [2]?
**A.** no binding

**Q.** Does B1 bind [3]?
**A.** no binding

**Q.** Does B1 bind [4]?
**A.** binds

**Q.** Does B1 bind [5]?
**A.** binds

B2: fully human anti-PDL1 c60 IgG (antibody, V domains shown)
VH: B1 VH with W52Y, R53S, N54T, I56G, V57A, V59A, W99S, A102G
VL: B1 VL
notes: Fully human IgG with the variable domains of PDL1 c60; also called anti-PDL1 clone 60:IgG
**Q.** What does the source list for B2?
**A.** Kd [6]: 30000 pM; Kd [7]: 1000 pM; Kd [8]: ~1000 pM

B3: anti-PDL1 antibody C5H9v2 (antibody, V domains shown)
VH: B1 VH
VL: B1 VL with Y50A, T53S, Q100G
notes: IgG; also called anti-PDL1 parental antibody C5H9v2
**Q.** How did the EC50 [9] turn out when B3 was run?
**A.** 300 pM

**Q.** What about the EC50 [10] of the same binder?
**A.** 280 pM

**Q.** What about the EC50 [11] of the same binder?
**A.** 250 pM

**Q.** And the EC50 [12]?
**A.** 310 pM

B4: PDL1 h9 Fab-phage (Fab, V domains shown)
VH: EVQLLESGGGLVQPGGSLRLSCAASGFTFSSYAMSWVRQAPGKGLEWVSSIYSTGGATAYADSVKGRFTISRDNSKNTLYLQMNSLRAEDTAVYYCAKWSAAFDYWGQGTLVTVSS
VL: B1 VL
notes: also called CDR3 clone H9
**Q.** Does B4 bind [13]?
**A.** no binding

**Q.** Does B4 bind [14]?
**A.** binds

B5: PDL1 c60 ScFv-phage (scFv)
scFv: EVQLLESGGGLVQPGGSLRLSCAASGFTFSSYAMSWVRQAPGKGLEWVSSIYSTGGATAYADSVKGRFTISRDNSKNTLYLQMNSLRAEDTAVYYCAKSSAGFDYWGQGTLVTVSSGGGGSGGGGSGGGGSTDIQMTQSPSSLSASVGDRVTITCRASQSISSYLNWYQQKPGKAPKLLIYYASTLQSGVPSRFSGSGSGTDFTLTISSLQPEDFATYYCQQDNGYPSTFGQGTKVEIKR
notes: also called clone 60
**Q.** Does B5 bind [15]?
**A.** binds

**Q.** Does B5 bind [16]?
**A.** binds

B6: mouse PD1-Fc (R&D Systems) (Fc fusion, UniProt Q02242 25-167, looked up)
chain: LEVPNGPWRSLTFYPAWLTVSEGANATFTCSLSNWSEDLMLNWNRLSPSNQTEKQAAFCNGLSQPVQDARFQIIQLPNRHDFHMNILDTRRNDSGIYLCGAISLHPKAKIEESPGAELVVTERILETSTRYPSPSPKPEGRFQ
notes: Bought reagent; also called mPD1; not shown: Fc part of the bought fusion protein; not described
**Q.** Does B6 bind [17]?
**A.** binds
